According to publication PMC5646249, “Structural Basis of Type 2 Secretion System Engagement between the Inner and Outer Bacterial Membranes” (mBio, 2017):

Biological target: the molecule itself
Assay: cryo-EM structure; single-particle cryo-EM of the detergent-solubilised, amphipol-stabilised ~1-MDa XcpQ multimer flash frozen on vitreous ice; Titan Krios, Gatan K2 Summit; 18,000+ particles; 2D class averages and 3D reconstruction under C15 symmetry, 3.6 Å

B1: XcpQ secretin of the Pseudomonas aeruginosa PAO1 type 2 secretion system (natural protein)
chain: ENSGGNAFVPAGNQQEAHWTINLKDADIREFIDQISEITGETFVVDPRVKGQVSVVSKAQLSLSEVYQLFLSVMSTHGFTVVAQGDQARIVPNAEAKTEAGGGQSAPDRLETRVIQVQQSPVSELIPLIRPLVPQYGHLAAVPSANALIISDRSANIARIEDVIRQLDQKGSHDYSVINLRYGWVMDAAEVLNNAMSRGQAKGAAGAQVIADARTNRLIILGPPQARAKLVQLAQSLDTPTARSANTRVIRLRHNDAKTLAETLGQISEGMKNNGGQGGEQTGGGRPSNILIRADESTNALVLLADPDTVNALEDIVRQLDVPRAQVLVEAAIVEISGDIQDAVGVQWAINKGGMGGTKTNFANTGLSIGTLLQSLESNKAPESIPDGAIVGIGSSSFGALVTALSANTKSNLLSTPSLLTLDNQKAEILVGQNVPFQTGSYTTNSEGSSNPFTTVERKDIGVSLKVTPHINDGAALRLEIEQEISALLPNAQQRNNTDLITSKRSIKSTILAENGQVIVIGGLIQDDVSQAESKVPLLGDIPLLGRLFRSTKDTHTKRNLMVFLRPTVVRDSAGLAALSGKKYSDIRVIDGTRGPEGRPSILPTNANQLFDGQAVDLRELMTE
notes: XcpQ, the secretin of the ancestral T2SS of Pseudomonas aeruginosa PAO1; four N domains (N0-N3), secretin domain (Pfam PF00263), S domain; numbers count on: the mature protein; N0 domains not seen and N1 domains poorly resolved in the map, though part of the purified protein; also called XcpQ secretin complex; XcpQ multimer; copies: 15
With B1 the “stoichiometry N” value was 15.
